Each block holds one binder with its values, some of them ahead of it. Bridges are numbered along the chain shown (N, C = ends). Where no end group is shown, it is not given here. [ ]: non-standard residue; d: D form. The star is where a group is joined. FITC = O=C1OC2(c3ccc(O)cc3Oc3cc(O)ccc32)c2ccc(NC(=S)*)cc21; S5 = C=CCCC[C@](C)(N)C(=O)O
Tests used:
[1] = target: T1, native EED in MLL-AF9 leukemia cells (UniProt Q921E6 2-441, limits assumed); assay: anti-FITC immunoprecipitation from peptide-treated MLL-AF9 cells, EED western
T1 construct: Endogenous intracellular protein
T1 sequence (Q921E6 2-441 limits assumed): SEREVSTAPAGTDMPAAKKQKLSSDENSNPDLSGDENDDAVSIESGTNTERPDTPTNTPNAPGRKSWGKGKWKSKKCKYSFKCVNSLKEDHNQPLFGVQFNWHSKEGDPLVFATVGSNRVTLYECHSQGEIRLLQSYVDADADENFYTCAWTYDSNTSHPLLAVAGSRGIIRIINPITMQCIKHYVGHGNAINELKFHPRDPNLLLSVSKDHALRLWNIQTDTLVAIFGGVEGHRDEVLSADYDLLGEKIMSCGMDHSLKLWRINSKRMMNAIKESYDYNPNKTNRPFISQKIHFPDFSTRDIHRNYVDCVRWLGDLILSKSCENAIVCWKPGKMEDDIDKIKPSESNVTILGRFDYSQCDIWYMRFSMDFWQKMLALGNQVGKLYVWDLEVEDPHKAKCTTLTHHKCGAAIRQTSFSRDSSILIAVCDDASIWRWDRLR
Description: To assess the interaction between SAH-EZH2 peptides and native EED, MLL-AF9 leukemia cells (2×10⁷) were cultured in 10 ml AF9 media using 10 cm dishes (BD Biosciences) and FITC-SAH-EZH2 peptides added to final concentration of 20 μM, followed by 8-12 h incubation. Treated cells were washed and trypsinized as above, lysed and then incubated with 50 μl of FITC-antibody (1 mg/ml) and 100 μl of protein G agarose (Roche) for 3 h. The amount of EED bound to FITC-SAH-EZH2 peptides was assessed by anti-EED western analysis (Millipore). To monitor for dissociation of native EED-EZH1/EZH2 complexes by SAH-EZH2, Sf21 cells were co-transfected with HA-EED and FLAG-EZH1 or FLAG-EZH2 baculovirus. EED-EZH1 and EED-EZH2 complexes were purified by anti-FLAG agarose (Sigma). EED-EZH1 and EED-EZH2 complexes (40 nM final concentration) were incubated with FITC-SAH-EZH2 peptides (final concentrations, 10, 3 and 1 μM) in 200 μl binding buffer for 2 h. After successive washes, the mixtures were incubated with anti-HA agarose (Sigma) and the level of HA-EED-bound EZH1 and EZH2 assessed by anti-HA western analysis.

purified EED (Example 6) = purified EED (Example 6) (UniProt O75530 1-441, limits assumed); assay: competitive fluorescence polarization: EED 200 nM, FITC-EZH2(42-68) 20 nM as competitor, 30 min
purified EED (Example 6), sequence (O75530 whole entry): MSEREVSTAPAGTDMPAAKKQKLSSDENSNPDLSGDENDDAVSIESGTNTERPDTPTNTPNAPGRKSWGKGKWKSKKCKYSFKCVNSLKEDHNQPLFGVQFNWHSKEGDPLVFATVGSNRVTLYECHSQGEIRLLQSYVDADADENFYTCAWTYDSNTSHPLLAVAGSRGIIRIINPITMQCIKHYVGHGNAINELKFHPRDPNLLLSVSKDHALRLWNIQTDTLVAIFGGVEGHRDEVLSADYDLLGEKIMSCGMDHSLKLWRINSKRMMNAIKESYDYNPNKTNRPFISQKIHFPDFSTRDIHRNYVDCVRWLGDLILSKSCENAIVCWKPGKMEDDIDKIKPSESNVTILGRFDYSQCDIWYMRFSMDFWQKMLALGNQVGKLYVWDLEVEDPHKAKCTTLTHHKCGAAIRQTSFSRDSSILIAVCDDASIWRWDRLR
Description: The EED binding affinities of SAH-EZH2 and SAH-EZH2(42-68)AC were assessed by their capacities to displace FITC-labeled EZH2(42-68) peptide from EED. Serially diluted acetyl-SAH-EZH2 and the doubly stapled acetyl-SAH-EZH2(42-68)AC (dose range from 2.5 nM to 10 μIM) were incubated with purified EED (200 nM) and FITC-labeled EZH2(42-68) peptide (20 nM) for 30 min, followed by measurement of fluorescence polarization. N-terminal acetylated SAH-EZH2(42-68)AC displaced FITC-labeled EZH2(42-68) peptide from EED two times more efficiently than SAH-EZH2. The non-binding EZH2(47-64) construct was used as a negative control.

B1: FITC-SAH-EZH2A(42-68)E54Q/E59Q (peptide)
peptide: {FITC}-FSSNR[S5]KIL[S5]RTQILNQQWKQRRIQPV
modifications: staple 6-10
notes: Negative control peptide; also called SAH-EZH2MUT; SAH-EZH2(42-68)A-E54,59Q
binding result [1]: no binding (tested: 20 µM peptide on cells)

fold displacement efficiency against SAH-EZH2 (purified EED (Example 6)): 2 fold
B2: acetyl-SAH-EZH2(42-68)AC (peptide)
peptide: Ac-FSSNR[S5]KIL[S5]RT[S5]ILN[S5]EWKQRRIQPV
modifications: staple 6-10, 13-17
notes: Doubly stapled peptide; also called doubly stapled SAH-EZH2 peptide

Reference: US20160068834A1 (Dana-Farber, published 2016)
